In publication PMC6954272, “Structure and dynamics of the E. coli chemotaxis core signaling complex by cryo-electron tomography and molecular simulations” (Communications Biology, 2020):
One block for each molecule: values may come before it.

Columns and labels:
[1] = molecular target: His6-tagged 4Q variant of the cytoplasmic fragment of the E. coli aspartate receptor Tar (His6-TarCF4Q) (E. coli) (UniProt P07017); assay: cryo-EM structure; cryo-electron tomography and sub-tomogram averaging of arrays reconstituted in vitro; His6-TarCF held on a Ni2+-NTA lipid monolayer; 9:18:18 µM TarCF:CheA:CheW; 75 mM Tris-HCl pH 7.4, 100 mM KCl, 5 mM MgCl2; overnight
[2] = molecular target: the molecule itself; assay: as above

- stoichiometry N [1]: 6
Molecule: His6-tagged 4Q variant of the cytoplasmic fragment of the E. coli aspartate receptor Tar (His6-TarCF4Q) (from UniProt P07017 357-553) (domain or fragment)

- stoichiometry N (CheA per receptor trimer-of-dimers (TOD)) [1]: 1
B1: E. coli histidine kinase CheA, domains P3-P4-P5 (P1-P2 deleted) (domain or fragment, UniProt P07363 264-654, looked up)
chain: IRVAVEKVDQLINLVGELVITQSMLAQRSSELDPVNHGDLITSMGQLQRNARDLQESVMSIRMMPMEYVFSRYPRLVRDLAGKLGKQVELTLVGSSTELDKSLIERIIDPLTHLVRNSLDHGIELPEKRLAAGKNSVGNLILSAEHQGGNICIEVTDDGAGLNRERILAKAASQGLTVSENMSDDEVAMLIFAPGFSTAEQVTDVSGRGVGMDVVKRNIQKMGGHVEIQSKQGTGTTIRILLPLTLAILDGMSVRVADEVFILPLNAVMESLQPREADLHPLAGGERVLEVRGEYLPIVELWKVFNVAGAKTEATQGIVVILQSGGRRYALLVDQLIGQHQVVVKNLESNYRKVPGISAATILGDGSVALIVDVSALQAINREQRMANTAA
notes: Histidine kinase CheA, E. coli, domains P3, P4 and P5 (pQM12: based on pKJ9 with del P1-P2); the atomic model covers residues 264-646; The methods also name pKJ9 (full-length CheA); the results say that CheA.P3-P4-P5 stood in the monolayer arrays; also called CheA.P3-P4-P5; CheA.P3.P4.P5; source: E. coli RP3098, plasmid pQM12, purified (Affi-gel Blue, Superdex 200, Mono Q)
- stoichiometry N [2]: 2

- stoichiometry N (CheW per receptor trimer-of-dimers (TOD)) [1]: 2
B2: E. coli adaptor protein CheW (natural protein)
chain: MTGMTNVTKLASEPSGQEFLVFTLGDEEYGIDILKVQEIRGYDQVTRIANTPAFIKGVTNLRGVIVPIVDLRIKFSQVDVDYNDNTVVIVLNLGQRVVGIVVDGVSDVLSLTAEQIRPAPEFAVTLSTEYLTGLGALGDRMLILVNIEKLLNSEEMALLDSAASEVA
